According to PMC12604968, “Mutant NPM1 modulates PDCD4 ubiquitination degradation and facilitates leukemogenesis” (iScience, 2025):
Ends that are not written are not given here. * marks the point of attachment. Biotin = O=C1N[C@H]2[C@H](CS[C@H]2CCCCC(=O)*)N1

B2: His-tagged NPM1 N-terminal domain (NPM1-NT, aa 1-117) (domain or fragment, human, UniProt P06748 1-117, looked up)
chain: MEDSMDMDMSPLRPQNYLFGCELKADKDYHFKVDNDENEHQLSLRTVSLGAGAKDELHIVEAEAMNYEGSPIKVTLATLKMSVQPTVSLGGFEITPPVVLRLKCGSGPVHISGQHLV
notes: source: E. coli BL21 (DE3), purified (Ni-NTA)

Key:
[1] = target: B2; assay: pull-down; biotinylated PDCD4-NoLS peptide immobilised on streptavidin beads, incubated with purified NPM1 fragment proteins; details: both partners purified
[2] = target: T1, GST-PDCD4 recombinant protein (human, UniProt Q53EL6 1-469); assay: pull-down; GST-PDCD4 immobilised on Glutathione Sepharose 4FF beads, incubated with purified His-tagged proteins; SDS-PAGE, Coomassie blue; details: both partners purified
T1 construct: PDCD4 (programmed cell death 4), human, amplified from cDNA of HEK293T cells and cloned into pGEX-6P-1; pGEX-6P-1 is known to add GST at the N-terminus; also called GST-tagged PDCD4; source: E. coli BL21 (DE3), purified (Glutathione Sepharose 4FF)
T1 sequence (looked up): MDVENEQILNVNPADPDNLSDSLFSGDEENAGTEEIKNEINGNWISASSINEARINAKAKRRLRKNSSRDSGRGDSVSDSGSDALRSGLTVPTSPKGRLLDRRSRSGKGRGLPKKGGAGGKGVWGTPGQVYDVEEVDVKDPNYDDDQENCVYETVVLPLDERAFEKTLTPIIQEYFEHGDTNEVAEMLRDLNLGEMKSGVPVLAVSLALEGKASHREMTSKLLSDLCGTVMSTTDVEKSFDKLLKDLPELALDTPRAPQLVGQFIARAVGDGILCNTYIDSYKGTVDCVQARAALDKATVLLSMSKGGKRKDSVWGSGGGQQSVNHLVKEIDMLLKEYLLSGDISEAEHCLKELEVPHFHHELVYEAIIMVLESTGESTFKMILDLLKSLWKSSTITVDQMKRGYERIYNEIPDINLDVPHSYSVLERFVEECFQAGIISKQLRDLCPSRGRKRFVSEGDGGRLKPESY

B1: Biotin-PDCD4-NoLS peptide (peptide)
peptide: Biotin-EARINAKAKRRLRKNSSRDSGRG
notes: PDCD4, human, nucleolar localization signal (NoLS); also called biotinylated PDCD4-NoLS peptides; biotin-tagged PDCD4-NoLS peptide; source: synthetic peptide, bought: GL Biochem; not shown: biotin, N-terminal, kept
- binding result [1]: binds

Binder: B2
- binding result [2]: binds
